From patent US20230407373A1 (priority 2020, published 2023)
“Also recorded” adds a separate entry of the source.

B1: CSDE1: host protein, UniProt O75534 (protein, UniProt O75534 1-798, looked up)
Cold shock domain-containing …: MSFDPNLLHNNGHNGYPNGTSAALRETGVIEKLLTSYGFIQCSERQARLFFHCSQYNGNLQDLKVGDDVEFEVSSDRRTGKPIAVKLVKIKQEILPEERMNGQVVCAVPHNLESKSPAAPGQSPTGSVCYERNGEVFYLTYTPEDVEGNVQLETGDKINFVIDNNKHTGAVSARNIMLLKKKQARCQGVVCAMKEAFGFIERGDVVKEIFFHYSEFKGDLETLQPGDDVEFTIKDRNGKEVATDVRLLPQGTVIFEDISIEHFEGTVTKVIPKVPSKNQNDPLPGRIKVDFVIPKELPFGDKDTKSKVTLLEGDHVRFNISTDRRDKLERATNIEVLSNTFQFTNEAREMGVIAAMRDGFGFIKCVDRDVRMFFHFSEILDGNQLHIADEVEFTVVPDMLSAQRNHAIRIKKLPKGTVSFHSHSDHRFLGTVEKEATFSNPKTTSPNKGKEKEAEDGIIAYDDCGVKLTIAFQAKDVEGSTSPQIGDKVEFSISDKQRPGQQVATCVRLLGRNSNSKRLLGYVATLKDNFGFIETANHDKEIFFHYSEFSGDVDSLELGDMVEYSLSKGKGNKVSAEKVNKTHSVNGITEEADPTIYSGKVIRPLRSVDPTQTEYQGMIEIVEEGDMKGEVYPFGIVGMANKGDCLQKGESVKFQLCVLGQNAQTMAYNITPLRRATVECVKDQFGFINYEVGDSKKLFFHVKEVQDGIELQAGDEVEFSVILNQRTGKCSACNVWRVCEGPKAVAAPRPDRLVNRLKNITLDDASAPRLMVLRQPRGPDNSMGFGAERKIRQAGVID
B2: FUBP3: host protein, UniProt Q96I24 (protein, UniProt Q96I24 2-572, looked up)
Far upstream element-binding …: AELVQGQSAPVGMKAEGFVDALHRVRQIAAKIDSIPHLNNSTPLVDPSVYGYGVQKRPLDDGVGNQLGALVHQRTVITEEFKVPDKMVGFIIGRGGEQISRIQAESGCKIQIASESSGIPERPCVLTGTPESIEQAKRLLGQIVDRCRNGPGFHNDIDSNSTIQEILIPASKVGLVIGRGGETIKQLQERTGVKMVMIQDGPLPTGADKPLRITGDAFKVQQAREMVLEIIREKDQADFRGVRGDFNSRMGGGSIEVSVPRFAVGIVIGRNGEMIKKIQNDAGVRIQFKPDDGISPERAAQVMGPPDRCQHAAHIISELILTAQERDGFGGLAAARGRGRGRGDWSVGAPGGVQEITYTVPADKCGLVIGKGGENIKSINQQSGAHVELQRNPPPNSDPNLRRFTIRGVPQQIEVARQLIDEKVGGTNLGAPGAFGQSPFSQPPAPPHQNTFPPRSSGCFPNMAAKVNGNPHSTPVSGPPAFLTQGWGSTYQAWQQPTQQVPSQQSQPQSSQPNYSKAWEDYYKKQSHAASAAPQASSPPDYTMAWAEYYRQQVAFYGQTLGQAQAHSQEQ
B3: ZC3HAV1: host protein, UniProt Q7Z2W4 (protein, UniProt Q7Z2W4 2-902, looked up)
Zinc finger CCCH-type …: ADPEVCCFITKILCAHGGRMALDALLQEIALSEPQLCEVLQVAGPDRFVVLETGGEAGITRSVVATTRARVCRRKYCQRPCDNLHLCKLNLLGRCNYSQSERNLCKYSHEVLSEENFKVLKNHELSGLNKEELAVLLLQSDPFFMPEICKSYKGEGRQQICNQQPPCSRLHICDHFTRGNCRFPNCLRSHNLMDRKVLAIMREHGLNPDVVQNIQDICNSKHMQKNPPGPRAPSSHRRNMAYRARSKSRDRFFQGSQEFLASASASAERSCTPSPDQISHRASLEDAPVDDLTRKFTYLGSQDRARPPSGSSKATDLGGTSQAGTSQRFLENGSQEDLLHGNPGSTYLASNSTSAPNWKSLTSWTNDQGARRKTVFSPTLPAARSSLGSLQTPEAVTTRKGTGLLSSDYRIINGKSGTQDIQPGPLFNNNADGVATDITSTRSLNYKSTSSGHREISSPRIQDAGPASRDVQATGRIADDADPRVALVNDSLSDVTSTTSSRVDDHDSEEICLDHLCKGCPLNGSCSKVHFHLPYRWQMLIGKTWTDFEHMETIEKGYCNPGIHLCSVGSYTINFRVMSCDSFPIRRLSTPSSVTKPANSVFTTKWIWYWKNESGTWIQYGEEKDKRKNSNVDSSYLESLYQSCPRGVVPFQAGSRNYELSFQGMIQTNIASKTQKDVIRRPTFVPQWYVQQMKRGPDHQPAKTSSVSLTATFRPQEDFCFLSSKKYKLSEIHHLHPEYVRVSEHFKASMKNFKIEKIKKIENSELLDKFTWKKSQMKEEGKLLFYATSRAYVESICSNNFDSFLHETHENKYGKGIYFAKDAIYSHKNCPYDAKNVVMFVAQVLVGKFTEGNITYTSPPPQFDSCVDTRSNPSVFVIFQKDQVYPQYVIEYTEDKACVIS
B4: CELF1: host protein, UniProt Q92879 (protein, UniProt Q92879 1-486, looked up)
CUGBP Elav-like family member …: MNGTLDHPDQPDLDAIKMFVGQVPRTWSEKDLRELFEQYGAVYEINVLRDRSQNPPQSKGCCFVTFYTRKAALEAQNALHNMKVLPGMHHPIQMKPADSEKNNAVEDRKLFIGMISKKCTENDIRVMFSSFGQIEECRILRGPDGLSRGCAFVTFTTRAMAQTAIKAMHQAQTMEGCSSPMVVKFADTQKDKEQKRMAQQLQQQMQQISAASVWGNLAGLNTLGPQYLALYLQLLQQTASSGNLNTLSSLHPMGGLNAMQLQNLAALAAAASAAQNTPSGTNALTTSSSPLSVLTSSGSSPSSSSSNSVNPIASLGALQTLAGATAGLNVGSLAGMAALNGGLGSSGLSNGTGSTMEALTQAYSGIQQYAAAALPTLYNQNLLTQQSIGAAGSQKEGPEGANLFIYHLPQEFGDQDLLQMFMPFGNVVSAKVFIDKQTNLSKCFGFVSYDNPVSAQAAIQSMNGFQIGMKRLKVQLKRSKNDSKPY

Tested on: SARS-CoV-2 gRNA
Assay type: binding
Conditions: not given

Molecule | enrichment in SARS-CoV-2 Probe I RNP capture
B1 | enriched
B2 | enriched; also recorded: found in the SARS-CoV-2 experiments
B3 | enriched; also recorded: found in the SARS-CoV-2 experiments
B4 | found in the SARS-CoV-2 experiments

Same assay, conditions: […]; LC-MS/MS; Probe I sample (first 199 lines of Table 2)

Molecule | target (unweighted spectral count of the protein in the RNP capture)
B1 | 37
B2 | 94
B3 | 31

Tested on: SARS-CoV-2 gRNA and sgRNAs
Assay type: binding
Conditions: not given

Molecule | enrichment in SARS-CoV-2 Probe II RNP capture
B1 | enriched
B2 | enriched; also recorded: found in the SARS-CoV-2 experiments
B3 | enriched; also recorded: found in the SARS-CoV-2 experiments
B4 | found in the SARS-CoV-2 experiments

Same assay, conditions: Probe II capture; […]; LC-MS/MS LFQ

Molecule | target (unweighted spectral count in RNP capture)
B1 | 92
B2 | 173
B3 | 48
B4 | 25

Same assay, conditions: no-probe control pull-down, used as background for Probe II

Molecule | background (unweighted spectral count in control)
B1 | 1
B2 | 1
B3 | 1
B4 | 1

Tested on: gRNA of HCoV-OC43
Assay type: binding
Conditions: infected HCT-8 cells

Molecule | enrichment / detection in HCoV-OC43 Probe I RNP capture
B2 | enriched

Same assay, conditions: type g_36_m; HCoV-OC43-infected HCT-8 cells, 36 hpi, Probe I

Molecule | target (spectral count)
B2 | 49
B4 | 15

Same assay, conditions: type g_36_m; uninfected-probe control, 36 hpi, Probe I

Molecule | background (spectral count)
B2 | 9
B4 | 1

Same assay, conditions: type n_48_v: 48 hours post-infection, infected cells, OC43 Probe I; unweighted spectral count

Molecule | target (spectral count, OC43 Probe I RNP capture)
B1 | 20
B2 | 47
B3 | 17
B4 | 16

Same assay, conditions: type n_48_v: 48 hours post-infection, no-probe control on infected cells

Molecule | background (spectral count, no-probe control)
B1 | 1
B2 | 3
B3 | 1
B4 | 1

Tested on: HCoV-OC43 gRNA and sgRNA
Assay type: binding
Conditions: 36 hpi; type n_36_v; tested against no-probe control; FDR<10%

Molecule | target (unweighted spectral count, OC43 Probe II capture)
B2 | 42
B3 | 18
B4 | 14

Same assay, conditions: OC43 Probe II, 12 hpi (type n_12_v), infected cells; tested against no-probe control

Molecule | target (unweighted spectral count)
B2 | 11
B3 | 8

Same assay, conditions: OC43 Probe II, 24 hpi (type n_24_v), infected cells; tested against no-probe control

Molecule | target (unweighted spectral count)
B1 | 18
B2 | 27
B3 | 13
B4 | 6

Same assay, conditions: infected HCT-8 cells

Molecule | enrichment / detection in HCoV-OC43 Probe II RNP capture
B2 | enriched

Same assay, conditions: type n_48_v; 48 hpi; OC43 Probe II capture on infected cells

Molecule | target (unweighted spectral count, OC43 Probe II)
B1 | 21
B2 | 71
B3 | 22
B4 | 14

Same assay, conditions: type n_48_v; 48 hpi; no-probe control on infected cells

Molecule | background (unweighted spectral count, no-probe control)
B1 | 1
B2 | 3
B3 | 1
B4 | 1

Same assay, conditions: type s_36_m; HCoV-OC43-infected HCT-8 cells, 36 hpi, Probe II

Molecule | target (spectral count)
B1 | 24
B2 | 42
B3 | 18
B4 | 14

Same assay, conditions: type s_36_m; uninfected-probe control, 36 hpi, Probe II

Molecule | background (spectral count)
B1 | 3
B2 | 6
B3 | 1
B4 | 1

Tested on: SARS-CoV-2
Assay type: cell-based
Conditions: not given

Molecule | antiviral or proviral role of the host protein indicated by knockdown
B1 | proviral effects
B3 | may act as antiviral factors

Same assay, conditions: Calu-3 cells, 50 nM siRNA, RT-qPCR, relative to siNC

Molecule | change in viral RNA levels (gRNA, N sgRNA) after siRNA depletion
B2 | increased the viral RNA levels
B3 | increased viral RNAs
B4 | increased viral RNAs; also recorded: only modest
